Key:
[1] = molecular target: anti-C-reactive protein antibody (MAB-1); test: TR-FRET competition; labeled anti-CRP MAB-1 with labeled CRP as tracer; unlabeled CRP calibrator at 8.1 mg/L
[2] = molecular target: anti-C-reactive protein antibody (MAB-1); test: TR-FRET competition, acceptor emission; unlabeled CRP calibrator at 2.9 mg/L
[3] = molecular target: anti-C-reactive protein antibody (MAB-1); test: TR-FRET competition, acceptor emission; unlabeled CRP calibrator at 8.1 mg/L
[4] = molecular target: anti-C-reactive protein antibody (MAB-1); test: TR-FRET competition; labeled anti-CRP MAB-1 with labeled CRP as tracer; unlabeled CRP calibrator at 20.4 mg/L
[5] = molecular target: anti-C-reactive protein antibody (MAB-1); test: TR-FRET competition, acceptor emission; unlabeled CRP calibrator at 118.7 mg/L
[6] = molecular target: anti-C-reactive protein antibody (MAB-1); test: TR-FRET competition; labeled anti-CRP MAB-1 with labeled CRP as tracer; unlabeled CRP calibrator at 118.7 mg/L
[7] = molecular target: anti-C-reactive protein antibody (MAB-1); test: TR-FRET competition, acceptor emission; unlabeled CRP calibrator at 60.5 mg/L
[8] = molecular target: anti-C-reactive protein antibody (MAB-1); test: TR-FRET competition; labeled anti-CRP MAB-1 with labeled CRP as tracer; unlabeled CRP calibrator at 60.5 mg/L
[9] = molecular target: anti-C-reactive protein antibody (MAB-1); test: TR-FRET competition; labeled anti-CRP MAB-1 with labeled CRP as tracer; unlabeled CRP calibrator at 2.9 mg/L
[10] = molecular target: anti-C-reactive protein antibody (MAB-1); test: TR-FRET competition, acceptor emission; unlabeled CRP calibrator at 20.4 mg/L

B1: C-reactive protein (unlabeled analyte / calibrator) (protein)
chain: QTDMSRKAFVFPKESDTSYVSLKAPLTKPLKAFTVCLHFYTELSSTRGYSIFSYATKRQDNEILIFWSKDIGYSFTVGGSEILFEVPEVTVAPVHICTSWESASGIVEFWVDGKPRVRKSLKKGYTVGAEASIILGQEQDSFGGNFEGSQSLVGDIGNVNMWDFVLSPDEINTIYLGGPFSPNVLNWRALKYEVQGEVFTKPQLWP
In the case of B1, the FRETRatio [1] is reported as 13100, the Acceptor1RFU [2] is reported as 210000 RFU and the Acceptor1RFU [3] is reported as 162000 RFU. For the same binder, the FRETRatio [4] was 8220, the Acceptor1RFU [5] was 29900 RFU and the FRETRatio [6] was 2320. It also gave an Acceptor1RFU [7] of 49700 RFU, an FRETRatio [8] of 3980 and an FRETRatio [9] of 17100. It also gave an Acceptor1RFU [10] of 103000 RFU.
